Patent US20250051409A1 (NATIONAL INSTITUTE FOR BIOTECHNOLOGY IN THE NEGEV, published 2025)

Assays:
[1] = biological target: T1, ATP synthase subunit 5A, inner mitochondria membrane protein (endogenous) (UniProt P25705 44-553, limits assumed); test: in situ proximity ligation assay
T1 construct: also called ATPsyn5a; ATP5a

[2] = biological target: T2, citrate synthase (CS), located in the matrix (endogenous) (UniProt O75390 28-466); test: in situ proximity ligation assay
T2 sequence (looked up): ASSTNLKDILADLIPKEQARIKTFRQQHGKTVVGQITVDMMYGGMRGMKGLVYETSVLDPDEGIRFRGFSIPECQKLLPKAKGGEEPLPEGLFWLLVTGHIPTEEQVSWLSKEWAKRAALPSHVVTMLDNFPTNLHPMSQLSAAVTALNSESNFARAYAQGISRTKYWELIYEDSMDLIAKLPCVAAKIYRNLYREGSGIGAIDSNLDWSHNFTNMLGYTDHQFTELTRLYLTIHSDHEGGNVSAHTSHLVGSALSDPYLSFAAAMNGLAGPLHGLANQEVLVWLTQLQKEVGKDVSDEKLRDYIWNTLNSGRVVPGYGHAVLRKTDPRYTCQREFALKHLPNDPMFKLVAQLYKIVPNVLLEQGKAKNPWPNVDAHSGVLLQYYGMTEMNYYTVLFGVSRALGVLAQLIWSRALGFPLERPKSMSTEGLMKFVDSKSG

T1 sequence (P25705 44-553 limits assumed): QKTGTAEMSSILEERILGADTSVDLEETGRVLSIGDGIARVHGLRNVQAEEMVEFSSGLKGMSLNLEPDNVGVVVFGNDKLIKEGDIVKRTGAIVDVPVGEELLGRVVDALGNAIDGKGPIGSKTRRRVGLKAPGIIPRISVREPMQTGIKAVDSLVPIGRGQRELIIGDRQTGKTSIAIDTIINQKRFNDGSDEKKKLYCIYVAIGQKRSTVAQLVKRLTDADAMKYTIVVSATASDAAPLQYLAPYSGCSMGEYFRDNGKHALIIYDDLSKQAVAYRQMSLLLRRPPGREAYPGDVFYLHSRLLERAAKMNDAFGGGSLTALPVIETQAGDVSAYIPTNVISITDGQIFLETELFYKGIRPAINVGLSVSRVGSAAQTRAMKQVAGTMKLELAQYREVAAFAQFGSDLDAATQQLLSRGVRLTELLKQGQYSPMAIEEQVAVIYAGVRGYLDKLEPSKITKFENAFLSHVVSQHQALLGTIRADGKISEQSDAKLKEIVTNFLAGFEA

| Binder | binding result [1] | binding result [2] |
| --- | --- | --- |
| SMAC/Diablo, endogenous, in A549 cells and A549 xenograft tumor sections (other, human, UniProt Q9NR28 56-239, looked up, Intracellular endogenous protein, detected with antibodies in the proximity ligation assay) AVPIAQKSEPHSLSSEALMRRAVSLVTDSTSTFLSQTTYALIEAITEYTKAVYTLTSLYRQYTSLLGKMNSEEEDEVWQVIIGARAEMTSKHQEYLKLETTWMTAVGLSEMAAEAAYQTGADQASITARNHIQLVKLQVEEVHQLSRKAETKLAEAQIEELRQKTQEEGEERAESEQEAYLRED | no binding | – |
| PSD, endogenous, in A549 cells (enzyme, Intracellular endogenous protein, detected with antibodies in the proximity ligation assay; also called phosphatidylserine decarboxylase) MMCQSEARQGPELRAAKWLHFPQLALRRRLGQLSCMSRPALKLRSWPLTVLYYLLPLGALRPLSRVGWRPVSRVALYKSVPTRLLSRAWGRLNQVELPHWLRRPVYSLYIWTFGVNMKEAAVEDLHHYRNLSEFFRRKLKPQARPVCGLHSVISPSDGRILNFGQVKNCEVEQVKGVTYSLESFLGPRTCTEDLPFPPAASCDSFKNQLVTREGNELYHCVIYLAPGDYHCFHSPTDWTVSHRRHFPGSLMSVNPGMARWIKELFCHNERVVLTGDWKHGFFSLTAVGATNVGSIRIYFDRDLHTNSPRHSKGSYNDFSVVGSLTR | – | no binding |
